Target: mCherry-LacR-CSB-ATPase
Test: immunofluorescence co-localisation at the lac operator array (mCherry-LacR tethering) in U2OS-265 cells
Details: 250 Myc-expressing cells scored per experiment; three independent experiments; parent: est. 28; read off a plot

Substance	response
Myc-CSB-N S10A	21 % of cells
Myc-CSB-N S10A; S158A	17 % of cells
Myc-CSB-N S10D	32 % of cells
Myc-CSB-N S10D; S158D	30 % of cells
Myc-CSB-N S158A	18 % of cells
Myc-CSB-N S158D	28 % of cells

— article PMC5715124
